Results taken from patent US20190112367A1.

Columns and labels:
[1] = target: human IL-32gamma (R&D) (human) (UniProt P24001); assay: ELISA, antigen coated at 1 µg/ml, serial dilutions of MAB
[2] = target: IL-32 (isotype not stated, analyte of the SPR experiment) (UniProt P24001); assay: SPR, ProteOn XPR36, IL-32 injected over the antibody
[3] = target: human IL-32gamma (R&D) (human) (UniProt P24001); assay: cell-based or functional assay

Row | EC50 [1] [µg/mL] | Kd [2] [nM] | IC 50 (neutralization of IL-32γ activity) [3] [µg/mL] | Binder
1 | 1.33 | – | – | anti-IL-32 antibody 26A6 (IgG1, lambda) (antibody, V domains shown) VH: QVQLVESGGGVVQPGRSLRLSCVASGLTFRTYGMHWVRQAPGNGLEWVAIIWHDGNKKYFADSVKGRFTISRDNSKNSLYLQMNSLRVEDTAVYYCAREMNGIDVWGQGTTVTVSS VL: SYELTQPPSVSVSPGQTARITCSGDALPETYVYWYQQKSGQAPVKLIYEDSERPSGIPERFSGSSSGTLATLTISGAHVEDEADYYCYSTDSSGIGVFGGGTKVTVLS
2 | 0.526 | 4 | 0.3 | anti-IL-32 antibody 2C2 (IgG3, lambda) (antibody, V domains shown) VH: QLRVQESGPGLLKPAETLSLTCSVSSGSVSNSRYYWAWIRQSPGKGLEWIGSMYYRGRSYYNPSLKSRLTISIDTSKNQFSLKLTSLTAADTAVYYCAAAVYHDLDYWGQGTLVTVSS VL: QSVLTQPPSVSAAPGQKVTISCSGSGSSIGNNYVSWYQQLPGAAPKLLIYDNTKRPSGIPDRFSGSKSGTSATLAITGLQPGDAADYYCGTWDSSFSVFWVFGGGTKLTVLS
